# Reference: US20220235136A1 (YALE UNIVERSITY, published 2022)
# T1: recombinant human CD93 protein (R&D Systems) (human, UniProt Q9NPY3 24-580)
# T1 construct: Bought soluble protein
# T1 sequence: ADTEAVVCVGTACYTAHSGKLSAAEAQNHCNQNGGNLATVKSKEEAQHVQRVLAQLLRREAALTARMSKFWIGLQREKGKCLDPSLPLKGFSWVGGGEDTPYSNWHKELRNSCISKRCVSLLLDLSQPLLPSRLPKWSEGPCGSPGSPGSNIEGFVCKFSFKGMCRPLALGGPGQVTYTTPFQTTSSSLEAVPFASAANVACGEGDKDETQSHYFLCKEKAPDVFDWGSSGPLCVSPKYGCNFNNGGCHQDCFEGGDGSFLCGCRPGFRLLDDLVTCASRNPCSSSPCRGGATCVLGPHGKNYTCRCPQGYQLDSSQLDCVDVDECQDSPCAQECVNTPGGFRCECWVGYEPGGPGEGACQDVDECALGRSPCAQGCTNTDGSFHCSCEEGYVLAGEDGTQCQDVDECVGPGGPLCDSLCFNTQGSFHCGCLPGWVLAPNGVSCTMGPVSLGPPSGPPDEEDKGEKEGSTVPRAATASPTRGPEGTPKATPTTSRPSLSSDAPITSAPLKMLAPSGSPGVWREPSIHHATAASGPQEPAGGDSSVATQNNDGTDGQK
# T2: mouse CD93 on transfected HEK293T cells (mouse, UniProt O89103 23-644)
# T2 construct: whole, on cells; also called mCD93
# T2 sequence (looked up): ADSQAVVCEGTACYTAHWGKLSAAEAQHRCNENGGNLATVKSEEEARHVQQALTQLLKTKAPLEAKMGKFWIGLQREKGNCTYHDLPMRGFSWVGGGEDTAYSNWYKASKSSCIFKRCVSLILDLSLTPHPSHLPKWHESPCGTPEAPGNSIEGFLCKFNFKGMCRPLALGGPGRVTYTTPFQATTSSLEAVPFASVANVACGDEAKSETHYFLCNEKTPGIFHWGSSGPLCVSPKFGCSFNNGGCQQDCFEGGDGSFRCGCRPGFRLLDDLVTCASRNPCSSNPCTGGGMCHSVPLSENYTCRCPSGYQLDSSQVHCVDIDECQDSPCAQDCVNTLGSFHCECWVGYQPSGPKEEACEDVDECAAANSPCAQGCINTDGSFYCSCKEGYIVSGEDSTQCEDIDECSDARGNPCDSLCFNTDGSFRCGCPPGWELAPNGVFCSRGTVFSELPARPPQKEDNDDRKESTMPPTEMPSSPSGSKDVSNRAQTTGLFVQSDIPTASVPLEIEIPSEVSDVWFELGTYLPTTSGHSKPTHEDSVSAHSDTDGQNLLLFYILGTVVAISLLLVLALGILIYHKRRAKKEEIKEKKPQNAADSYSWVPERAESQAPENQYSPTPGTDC
# What was measured:
# [1] = target: T1, recombinant human CD93 protein (R&D …); assay: microscale thermophoresis: 10 nM labelled IGFBP7, CD93 titrated from 5.9 uM to 180 pM (FIG. 4E)
# [2] = target: T2, mouse CD93 on transfected HEK293T cells; assay: flow cytometry, mouse IGFBP7-Ig on mouse CD93-transduced or control HEK293T cells
Kd [1] [µM],binding result [2],Binder
0.0531,,"IGFBP7 protein (R&D Systems), labelled with a His-Tag Labeling Kit for MST (ligand, RED-tris-NTA fluorescent dye bound to the His tag, Bought; also called human IGFBP7; not shown: His tag implied by the His-Tag Labeling Kit) SSSDTCGPCEPASCPPLPPLGCLLGETRDACGCCPMCARGEGEPCGGGGAGRGYCAPGMECVKSRKRRKGKAGAAAGGPGVSGVCVCKSRYPVCGSDGTTYPSGCQLRAASQRAESRGEKAITQVSKGTCEQGPSIVTPPKDIWNVTGAQVYLSCEVIGIPTPVLIWNKVKRGHYGVQRTELLPGDRDNLAIQTRGGPEKHEVTGWVLVSPLSKEDAGEYECHASNSQGQASASAKITVVDALHEIPVKKGEGAEL"
,binds,"Mouse IGFBP7 (Fc-tag), Sino Biological (Fc fusion, UniProt Q61581 26-281, looked up, also called mouse IGFBP7-Ig; not shown: Fc tag) SSSDACGPCVPASCPALPRLGCPLGETRDACGCCPVCARGEGEPCGGGAAGRGHCAPGMECVKSRKRRKGKAGAAAGGPATLAVCVCKSRYPVCGSNGITYPSGCQLRAASLRAESRGEKAITQVSKGTCEQGPSIVTPPKDIWNVTGAKVFLSCEVIGIPTPVLIWNKVKRDHSGVQRTELLPGDRENLAIQTRGGPEKHEVTGWVLVSPLSKEDAGEYECHASNSQGQASAAAKITVVDALHEIPLKKGEGAQL"
